Measured values from PMC4528935, “Structures of Pseudomonas aeruginosa β-ketoacyl-(acyl-carrier-protein) synthase II (FabF) and a C164Q mutant provide templates for antibacterial drug discovery and identify a buried potassium ion and a ligand-binding site that is an artefact of the crystal form” (Acta Crystallographica. Section F, Structural Biology …, 2015).
Changes are numbered by the printed parent chain. In names and notes the source's numbering stands.

B1: Pseudomonas aeruginosa β-ketoacyl-(acyl-carrier-protein) synthase II (FabF) (enzyme)
chain: MSRRRVVITGMGMLSPLGLDVPSSWEGILAGRSGIAPIEHMDLSAYSTRFGGSVKGFNVEEYLSAKEARKLDLFIQYGLAASFQAVRDSGLEVTDANRERIGVSMGSGIGGLTNIENNCRSLFEQGPRRISPFFVPGSIINMVSGFLSIHLGLQGPNYALTTACTTGTHSIGMAARNIAYGEADVMVAGGSEMAACGLGLGGFGAARALSTRNDEPTRASRPWDRDRDGFVLSDGSGALVLEELEHARARGARIYAELVGFGMSGDAFHMTAPPEDGAGAARCMKNALRDAGLDPRQVDYINAHGTSTPAGDIAEIAAVKSVFGEHAHALSMSSTKSMTGHLLGAAGAVEAIFSVLALRDQVAPPTINLDNPDEGCDLDLVAHEAKPRKIDVALSNSFGFGGTNGTLVFRRFAD
notes: β-ketoacyl-(acyl-carrier-protein) synthase II (FabF) of Pseudomonas aeruginosa, UniProt G3XDA2; the gene was cloned into pNIC28-Bsa4; theoretical mass of a monomer 43 kDa; The models hold 822 residues for two chains (4b7v) and 408 for one chain (4jpf); also called PaFabF; apo PaFabF; source: E. coli BL21(DE3)pLysS, purified (Ni2+ HisTrap, TEV cleavage, second HisTrap, Superdex 200 SEC); not …
B2: PaFabF C164Q mutant (enzyme)
chain: B1 chain with C164Q
notes: β-ketoacyl-(acyl-carrier-protein) synthase II (FabF) of Pseudomonas aeruginosa, UniProt G3XDA2, with Cys164 changed to Gln; same construct in pNIC28-Bsa4 as the wild type; The model holds 824 residues for two chains (4jb6); source: E. coli BL21(DE3)pLysS, purified as the wild type but in phosphate buffer; not shown: His6, N-terminal, cleaved

How the values were obtained:
[1] = target: the molecule itself; assay: crystal structure; apo PaFabF, space group P2_(1), two molecules in the asymmetric unit; 0.2 M MgCl2, 0.1 M Tris-HCl pH 7.0, 10% PEG 8000, 293 K
[2] = target: the molecule itself; assay: crystal structure; PaFabF-C164Q, space group C222_(1), a dimer in the asymmetric unit; 0.2 M NH4HCO2, 25% PEG 3350, 293 K

Protein	binding result [1]	binding result [2]
B1	binds	
B2		binds
